Measurements reported in patent publication US20190169289A1 (Scripps Research, published 2019).

What was measured:
[1] = target: T1, anti-GCN4 (52SR4 scFv) sCAR with CD8 hinge; assay: flow cytometry on CD8 sCAR-T cells, switch 30 min at 4 C, detected with PE-conjugated goat anti-human kappa chain antibody, MFI
T1 construct: 273 is the protein without leader; also called sCAR (long); CD8 sCAR
Text: Cells were washed two times and analyzed using the Accuri flow cytometer (BD).

CLL1 [2] = target: T2, CLL1 (UniProt Q5QGZ9 1-265, limits assumed); assay: cell-based or functional assay
T2 sequence (looked up): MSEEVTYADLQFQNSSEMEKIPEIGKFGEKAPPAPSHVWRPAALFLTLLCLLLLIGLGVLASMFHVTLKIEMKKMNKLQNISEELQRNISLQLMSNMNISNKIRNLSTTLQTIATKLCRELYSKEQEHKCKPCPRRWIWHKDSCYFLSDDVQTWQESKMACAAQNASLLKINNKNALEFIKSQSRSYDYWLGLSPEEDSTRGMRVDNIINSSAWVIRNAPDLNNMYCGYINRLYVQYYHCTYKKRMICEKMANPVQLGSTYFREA

CLL1 [3] = target: T2, CLL1; assay: cell-based or functional assay; remark: listed apart in the source

B1: anti-CD19 (FMC63) Fab LCC1 switch (Fab)
light: DIQMTQTTSSLSASLGDRVTISCRASQDISKYLNWYQQKPDGTVKLLIYHTSRLHSGVPSRFSGSGSGTDYSLTISNLEQEDIATYFCQQGNTLPYTFGGGTKLEIKRTVAAPSVFIFPPSDEQLKSGTASVVCLLNNFYPREAKVQWKVDNALQSGNSQESVTEQDSGGGGSNYHLENEVARLKKLGGGGSDSTYSLSSTLTLSKADYEKHKVYACEVTHQGLSSPVTKSFNRGEC
heavy: EVKLQESGPGLVAPSQSLSVTCTVSGVSLPDYGVSWIRQPPRKGLEWLGVIWGSETTYYNSALKSRLTIIKDNSKSQVFLKMNSLQTDDTAIYYCAKHYYYGGSYAMDYWGQGTSVTVSSASTKGPSVFPLAPSSKSTSGGTAALGCLVKDYFPEPVTVSWNSGALTSGVHTFPAVLQSSGLYSLSSVVTVPSSSLGTQTYICNVNHKPSNTKVDKKVEPKSC
notes: also called anti-CD19 Fab CL1-GCN4
EC50 [1]: 4600 pM

B2: anti-CD19 (FMC63) Fab LCCT switch (Fab)
light: DIQMTQTTSSLSASLGDRVTISCRASQDISKYLNWYQQKPDGTVKLLIYHTSRLHSGVPSRFSGSGSGTDYSLTISNLEQEDIATYFCQQGNTLPYTFGGGTKLEIKRTVAAPSVFIFPPSDEQLKSGTASVVCLLNNFYPREAKVQWKVDNALQSGNSQESVTEQDSKDSTYSLSSTLTLSKADYEKHKVYACEVTHQGLSSPVTKSFNRGECGGGGSNYHLENEVARLKKL
heavy: EVKLQESGPGLVAPSQSLSVTCTVSGVSLPDYGVSWIRQPPRKGLEWLGVIWGSETTYYNSALKSRLTIIKDNSKSQVFLKMNSLQTDDTAIYYCAKHYYYGGSYAMDYWGQGTSVTVSSASTKGPSVFPLAPSSKSTSGGTAALGCLVKDYFPEPVTVSWNSGALTSGVHTFPAVLQSSGLYSLSSVVTVPSSSLGTQTYICNVNHKPSNTKVDKKVEPKSC
EC50 [1]: 4600 pM

B3: anti-CD19 (FMC63) Fab C1BV switch (Fab)
light: DIQMTQTTSSLSASLGDRVTISCRASQDISKYLNWYQQKPDGTVKLLIYHTSRLHSGVPSRFSGSGSGTDYSLTISNLEQEDIATYFCQQGNTLPYTFGGGTKLEIKRTVAAPSVFIFPPSDEQLKSGTASVVCLLNNFYPREAKVQWKVDNALQSGNSQESVTEQDSGGGGSNYHLENEVARLKKLGGGGSDSTYSLSSTLTLSKADYEKHKVYACEVTHQGLSSPVTKSFNRGEC
heavy: EVKLQESGPGLVAPSQSLSVTCTVSGVSLPDYGVSWIRQPPRKGLEWLGVIWGSETTYYNSALKSRLTIIKDNSKSQVFLKMNSLQTDDTAIYYCAKHYYYGGSYAMDYWGQGTSVTVSSASTKGPSVFPLAPSSNYHLENEVARLKKLSGGTAALGCLVKDYFPEPVTVSWNSGALTSGVHTFPAVLQSSGLYSLSSVVTVPSSSLGTQTYICNVNHKPSNTKVDKKVEPKSC
notes: also called BV C1
EC50 [1]: 620 pM

B4: anti-CD19 (FMC63) Fab HCCT switch (Fab, V domains shown)
VH: EVKLQESGPGLVAPSQSLSVTCTVSGVSLPDYGVSWIRQPPRKGLEWLGVIWGSETTYYNSALKSRLTIIKDNSKSQVFLKMNSLQTDDTAIYYCAKHYYYGGSYAMDYWGQGTSVTVSS
VL: DIQMTQTTSSLSASLGDRVTISCRASQDISKYLNWYQQKPDGTVKLLIYHTSRLHSGVPSRFSGSGSGTDYSLTISNLEQEDIATYFCQQGNTLPYTFGGGTKLEIKR
notes: also called C-terminal switch
EC50 [1]: 11700 pM

B5: anti-CD19 (FMC63) Fab NTBV switch (Fab, V domains shown)
VH: EVKLQESGPGLVAPSQSLSVTCTVSGVSLPDYGVSWIRQPPRKGLEWLGVIWGSETTYYNSALKSRLTIIKDNSKSQVFLKMNSLQTDDTAIYYCAKHYYYGGSYAMDYWGQGTSVTVSS
VL: DIQMTQTTSSLSASLGDRVTISCRASQDISKYLNWYQQKPDGTVKLLIYHTSRLHSGVPSRFSGSGSGTDYSLTISNLEQEDIATYFCQQGNTLPYTFGGGTKLEIKR
notes: also called BV NT
EC50 [1]: 690 pM

B6: anti-CD19 (FMC63) Fab with no grafted peptide (Fab, V domains shown)
VH: EVKLQESGPGLVAPSQSLSVTCTVSGVSLPDYGVSWIRQPPRKGLEWLGVIWGSETTYYNSALKSRLTIIKDNSKSQVFLKMNSLQTDDTAIYYCAKHYYYGGSYAMDYWGQGTSVTVSS
VL: DIQMTQTTSSLSASLGDRVTISCRASQDISKYLNWYQQKPDGTVKLLIYHTSRLHSGVPSRFSGSGSGTDYSLTISNLEQEDIATYFCQQGNTLPYTFGGGTKLEIKR
notes: also called WT; wild type anti-CD19 Fab
binding result [1]: no binding (tested: 10^2 nM)

B7: anti-CLL1 (1075.7) Fab switch C (heavy chain C terminus) (Fab, V domains shown)
VH: DIQLQESGPGLVKPSQSLSLTCSVTGYSITSAYYWNWIRQFPGNKLEWMGYISYDGRNNYNPSLKNRISITRDTSKNQFFLKLNSVTTEDTATYYCAKEGDYDVGNYYAMDYWGQGTSVTVSS
VL: ENVLTQSPAIMSASPGEKVTMTCRASSNVISSYVHWYQQRSGASPKLWIYSTSNLASGVPARFSGSGSGTSYSLTISSVEAEDAATYYCQQYSGYPLTFGAGTKLELKR
EC50 of cytotoxicity, long hinge CAR (CLL1 [2]): 3.3 pM | EC50 of cytotoxicity, short hinge CAR (CLL1 [3]): 4.9 pM

B8: anti-CLL1 (1075.7) Fab bivalent switch A + B (Fab, V domains shown)
VH: DIQLQESGPGLVKPSQSLSLTCSVTGYSITSAYYWNWIRQFPGNKLEWMGYISYDGRNNYNPSLKNRISITRDTSKNQFFLKLNSVTTEDTATYYCAKEGDYDVGNYYAMDYWGQGTSVTVSS
VL: ENVLTQSPAIMSASPGEKVTMTCRASSNVISSYVHWYQQRSGASPKLWIYSTSNLASGVPARFSGSGSGTSYSLTISSVEAEDAATYYCQQYSGYPLTFGAGTKLELKR
EC50 of cytotoxicity, long hinge CAR (CLL1 [2]): 0.6 pM | EC50 of cytotoxicity, short hinge CAR (CLL1 [3]): 0.5 pM

B9: anti-CLL1 (1075.7) Fab switch A (LCNT1) (Fab, V domains shown)
VH: DIQLQESGPGLVKPSQSLSLTCSVTGYSITSAYYWNWIRQFPGNKLEWMGYISYDGRNNYNPSLKNRISITRDTSKNQFFLKLNSVTTEDTATYYCAKEGDYDVGNYYAMDYWGQGTSVTVSS
VL: ENVLTQSPAIMSASPGEKVTMTCRASSNVISSYVHWYQQRSGASPKLWIYSTSNLASGVPARFSGSGSGTSYSLTISSVEAEDAATYYCQQYSGYPLTFGAGTKLELKR
EC50 of cytotoxicity, long hinge CAR (CLL1 [2]): 4.1 pM | EC50 of cytotoxicity, short hinge CAR (CLL1 [3]): 1.5 pM

B10: anti-CLL1 (1075.7) Fab switch B (HCNT3) (Fab, V domains shown)
VH: DIQLQESGPGLVKPSQSLSLTCSVTGYSITSAYYWNWIRQFPGNKLEWMGYISYDGRNNYNPSLKNRISITRDTSKNQFFLKLNSVTTEDTATYYCAKEGDYDVGNYYAMDYWGQGTSVTVSS
VL: ENVLTQSPAIMSASPGEKVTMTCRASSNVISSYVHWYQQRSGASPKLWIYSTSNLASGVPARFSGSGSGTSYSLTISSVEAEDAATYYCQQYSGYPLTFGAGTKLELKR
EC50 of cytotoxicity, long hinge CAR (CLL1 [2]): 1.3 pM | EC50 of cytotoxicity, short hinge CAR (CLL1 [3]): 0.6 pM

B11: anti-CD19 (FMC63) Fab CTBV switch (Fab)
light: DIQMTQTTSSLSASLGDRVTISCRASQDISKYLNWYQQKPDGTVKLLIYHTSRLHSGVPSRFSGSGSGTDYSLTISNLEQEDIATYFCQQGNTLPYTFGGGTKLEIKRTVAAPSVFIFPPSDEQLKSGTASVVCLLNNFYPREAKVQWKVDNALQSGNSQESVTEQDSKDSTYSLSSTLTLSKADYEKHKVYACEVTHQGLSSPVTKSFNRGECGGGGSNYHLENEVARLKKL
heavy: EVKLQESGPGLVAPSQSLSVTCTVSGVSLPDYGVSWIRQPPRKGLEWLGVIWGSETTYYNSALKSRLTIIKDNSKSQVFLKMNSLQTDDTAIYYCAKHYYYGGSYAMDYWGQGTSVTVSSASTKGPSVFPLAPSSKSTSGGTAALGCLVKDYFPEPVTVSWNSGALTSGVHTFPAVLQSSGLYSLSSVVTVPSSSLGTQTYICNVNHKPSNTKVDKKVEPKSCGGGGSNYHLENEVARLKKL
notes: the text prints 97 & 34; also called BV CT
EC50 [1]: 360 pM

B12: anti-CLL1 (1075.7) Fab switch D (light chain C terminus) (Fab)
light: ENVLTQSPAIMSASPGEKVTMTCRASSNVISSYVHWYQQRSGASPKLWIYSTSNLASGVPARFSGSGSGTSYSLTISSVEAEDAATYYCQQYSGYPLTFGAGTKLELKRAAAAPSVFIFPPSDEQLKSGTASVVCLLNNFYPREAKVQWKVDNALQSGNSQESVTEQDSKDSTYSLSSTLTLSKADYEKHKVYACEVTHQGLSSPVTKSFNRGECGGGGSNYHLENEVARLKKL
heavy: DIQLQESGPGLVKPSQSLSLTCSVTGYSITSAYYWNWIRQFPGNKLEWMGYISYDGRNNYNPSLKNRISITRDTSKNQFFLKLNSVTTEDTATYYCAKEGDYDVGNYYAMDYWGQGTSVTVSSARTKGPSVFPLAPSSKSTSGGTAALGCLVKDYFPEPVTVSWNSGALTSGVHTFPAVLQSSGLYSLSSVVTVPSSSLGTQTYICNVNHKPSNTKVDKKVEPKSC
EC50 of cytotoxicity, long hinge CAR (CLL1 [2]): 2.2 pM | EC50 of cytotoxicity, short hinge CAR (CLL1 [3]): 5.1 pM

B13: anti-CLL1 (1075.7) Fab bivalent switch C + D (Fab)
light: ENVLTQSPAIMSASPGEKVTMTCRASSNVISSYVHWYQQRSGASPKLWIYSTSNLASGVPARFSGSGSGTSYSLTISSVEAEDAATYYCQQYSGYPLTFGAGTKLELKRAAAAPSVFIFPPSDEQLKSGTASVVCLLNNFYPREAKVQWKVDNALQSGNSQESVTEQDSKDSTYSLSSTLTLSKADYEKHKVYACEVTHQGLSSPVTKSFNRGECGGGGSNYHLENEVARLKKL
heavy: DIQLQESGPGLVKPSQSLSLTCSVTGYSITSAYYWNWIRQFPGNKLEWMGYISYDGRNNYNPSLKNRISITRDTSKNQFFLKLNSVTTEDTATYYCAKEGDYDVGNYYAMDYWGQGTSVTVSSARTKGPSVFPLAPSSKSTSGGTAALGCLVKDYFPEPVTVSWNSGALTSGVHTFPAVLQSSGLYSLSSVVTVPSSSLGTQTYICNVNHKPSNTKVDKKVEPKSCGGGGSNYHLENEVARLKKL
EC50 of cytotoxicity, long hinge CAR (CLL1 [2]): 3.1 pM | EC50 of cytotoxicity, short hinge CAR (CLL1 [3]): 1.2 pM
